Source: paper PMC8119438

Molecular target: GST-Rab12 (mouse) (UniProt P35283)
Experiment: pull-down; 20 μg GST, GST-Rab12 or GST-Rab12(K71R) on glutathione agarose beads, 18 h at 4 °C with 500 μg lysate of RBL cells transfected with T7-tagged RILP, RILP mutants, RILP-L1 or RILP-L2, 0.5 mM GTPγS; blot anti-T7 (Fig. 2b,c; Supplementary figure S3)

UniProt P35283, sequence (P35283 other isoform, or with tags, fused parts or gaps): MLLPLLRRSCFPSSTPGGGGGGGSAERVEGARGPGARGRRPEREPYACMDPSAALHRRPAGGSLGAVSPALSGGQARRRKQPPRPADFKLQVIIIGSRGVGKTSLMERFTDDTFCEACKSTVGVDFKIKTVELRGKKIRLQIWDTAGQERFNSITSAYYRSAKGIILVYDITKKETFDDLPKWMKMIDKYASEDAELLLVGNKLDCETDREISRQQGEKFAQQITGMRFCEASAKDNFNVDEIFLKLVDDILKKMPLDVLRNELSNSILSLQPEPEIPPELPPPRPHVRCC

percent by which the pulldown by Rab12 was impaired, against wild type RILP | percent by which the pulldown by Rab12 was inhibited, against wild type RILP | Binder
85% |  | T7-RILP(L231A) (natural protein) MEPRRAAPRLPSQASSSVGAGSAAELVYHLAGALGTELQGLARRFGPDAAAGLVPLVVRALELLEKAAVGPAPDSLQVSAQQAEVELRRLREENQRLRQELGSGPQEERALLRQLKEVTDRQRDELRAHNRDLQRRSQETEALQEQLQRLLLINSELRHKLAAVQTQLRAAQDRERERQIAQDGSSQLAKEQSLEPDAATSDDPVDTQKQPGNLPEAVQCGFSREELKQIAQERNELKANVFLLKEELAYFQRELLTDHRVPGLLLEAMKVAVKKQRRKIKAKMLGTPEEAESSEDEDGSWLLLSNDKEDVPLVPESRIQNFFGLWYRGETEAPEAETSNPASSSLQKGEETPQQPHLQPVNSPPAPNS
 | 90% | T7-RILP(E233A) (natural protein) MEPRRAAPRLPSQASSSVGAGSAAELVYHLAGALGTELQGLARRFGPDAAAGLVPLVVRALELLEKAAVGPAPDSLQVSAQQAEVELRRLREENQRLRQELGSGPQEERALLRQLKEVTDRQRDELRAHNRDLQRRSQETEALQEQLQRLLLINSELRHKLAAVQTQLRAAQDRERERQIAQDGSSQLAKEQSLEPDAATSDDPVDTQKQPGNLPEAVQCGFSREELKQILQARNELKANVFLLKEELAYFQRELLTDHRVPGLLLEAMKVAVKKQRRKIKAKMLGTPEEAESSEDEDGSWLLLSNDKEDVPLVPESRIQNFFGLWYRGETEAPEAETSNPASSSLQKGEETPQQPHLQPVNSPPAPNS
